Test results reported in the Human Domainome abundance scans (Beltran et al. 2025).
± gives the uncertainty stated by the source.

B1: POU domain, class 3, transcription factor 3, residues 408 to 463; numbered along this chain, P20264 (parent)
chain: KKRTSIEVSVKGALESHFLKCPKPSAQEITNLADSLQLEKEVVRVWFCNRRQKEKR

Variants of: B1
Assay: abundance fitness (aPCA) (normalised: wild type 0, dead -1); higher = more abundant; growth selection in yeast, the domain comes from the species named
Conditions: Homo sapiens
KQRTSIEVSVKGALESHFLKCPKPSAQEITNLADSLQLEKEVVRVWFCNRRQKEKR [K2Q] gave an abundance fitness of -0.255 ± 0.23.
For KRRTSIEVSVKGALESHFLKCPKPSAQEITNLADSLQLEKEVVRVWFCNRRQKEKR [K2R], the abundance fitness was -0.086 ± 0.081.
For KSRTSIEVSVKGALESHFLKCPKPSAQEITNLADSLQLEKEVVRVWFCNRRQKEKR [K2S], the abundance fitness was -0.077 ± 0.098.
Variant KTRTSIEVSVKGALESHFLKCPKPSAQEITNLADSLQLEKEVVRVWFCNRRQKEKR [K2T] has an abundance fitness of -0.008 ± 0.11.
In the case of KVRTSIEVSVKGALESHFLKCPKPSAQEITNLADSLQLEKEVVRVWFCNRRQKEKR [K2V], the abundance fitness is reported as -0.048 ± 0.1.
For KWRTSIEVSVKGALESHFLKCPKPSAQEITNLADSLQLEKEVVRVWFCNRRQKEKR [K2W], the abundance fitness was -0.321 ± 0.12.
Work on KYRTSIEVSVKGALESHFLKCPKPSAQEITNLADSLQLEKEVVRVWFCNRRQKEKR [K2Y] yielded an abundance fitness of -0.391 ± 0.14.
For KKATSIEVSVKGALESHFLKCPKPSAQEITNLADSLQLEKEVVRVWFCNRRQKEKR [R3A], the abundance fitness was -0.15 ± 0.075.
Work on KKCTSIEVSVKGALESHFLKCPKPSAQEITNLADSLQLEKEVVRVWFCNRRQKEKR [R3C] yielded an abundance fitness of -0.415 ± 0.15.
For KKFTSIEVSVKGALESHFLKCPKPSAQEITNLADSLQLEKEVVRVWFCNRRQKEKR [R3F], the abundance fitness was -0.119 ± 0.15.
With KKGTSIEVSVKGALESHFLKCPKPSAQEITNLADSLQLEKEVVRVWFCNRRQKEKR [R3G] the abundance fitness was 0.04 ± 0.064.
Work on KKHTSIEVSVKGALESHFLKCPKPSAQEITNLADSLQLEKEVVRVWFCNRRQKEKR [R3H] yielded an abundance fitness of -0.273 ± 0.15.
Variant KKITSIEVSVKGALESHFLKCPKPSAQEITNLADSLQLEKEVVRVWFCNRRQKEKR [R3I] has an abundance fitness of -0.023 ± 0.17.
With KKKTSIEVSVKGALESHFLKCPKPSAQEITNLADSLQLEKEVVRVWFCNRRQKEKR [R3K] the abundance fitness was 0.067 ± 0.13.
KKLTSIEVSVKGALESHFLKCPKPSAQEITNLADSLQLEKEVVRVWFCNRRQKEKR [R3L] showed an abundance fitness of 0.055 ± 0.087.
In the case of KKMTSIEVSVKGALESHFLKCPKPSAQEITNLADSLQLEKEVVRVWFCNRRQKEKR [R3M], the abundance fitness is reported as 0.045 ± 0.11.
Variant KKNTSIEVSVKGALESHFLKCPKPSAQEITNLADSLQLEKEVVRVWFCNRRQKEKR [R3N] has an abundance fitness of -0.048 ± 0.2.
With KKPTSIEVSVKGALESHFLKCPKPSAQEITNLADSLQLEKEVVRVWFCNRRQKEKR [R3P] the abundance fitness was -0.2 ± 0.13.
KKQTSIEVSVKGALESHFLKCPKPSAQEITNLADSLQLEKEVVRVWFCNRRQKEKR [R3Q] gave an abundance fitness of -0.217 ± 0.13.
Variant KKSTSIEVSVKGALESHFLKCPKPSAQEITNLADSLQLEKEVVRVWFCNRRQKEKR [R3S] has an abundance fitness of 0.026 ± 0.081.
KKTTSIEVSVKGALESHFLKCPKPSAQEITNLADSLQLEKEVVRVWFCNRRQKEKR [R3T] gave an abundance fitness of -0.077 ± 0.094.
KKVTSIEVSVKGALESHFLKCPKPSAQEITNLADSLQLEKEVVRVWFCNRRQKEKR [R3V] showed an abundance fitness of 0.031 ± 0.079.
KKWTSIEVSVKGALESHFLKCPKPSAQEITNLADSLQLEKEVVRVWFCNRRQKEKR [R3W] gave an abundance fitness of -0.155 ± 0.088.
KKYTSIEVSVKGALESHFLKCPKPSAQEITNLADSLQLEKEVVRVWFCNRRQKEKR [R3Y] gave an abundance fitness of -0.267 ± 0.19.
KKRASIEVSVKGALESHFLKCPKPSAQEITNLADSLQLEKEVVRVWFCNRRQKEKR [T4A] showed an abundance fitness of -0.17 ± 0.079.
KKRCSIEVSVKGALESHFLKCPKPSAQEITNLADSLQLEKEVVRVWFCNRRQKEKR [T4C] gave an abundance fitness of -0.205 ± 0.11.
Variant KKRDSIEVSVKGALESHFLKCPKPSAQEITNLADSLQLEKEVVRVWFCNRRQKEKR [T4D] has an abundance fitness of -0.279 ± 0.14.
KKRESIEVSVKGALESHFLKCPKPSAQEITNLADSLQLEKEVVRVWFCNRRQKEKR [T4E] showed an abundance fitness of -0.082 ± 0.16.
KKRFSIEVSVKGALESHFLKCPKPSAQEITNLADSLQLEKEVVRVWFCNRRQKEKR [T4F] showed an abundance fitness of -0.116 ± 0.18.
With KKRGSIEVSVKGALESHFLKCPKPSAQEITNLADSLQLEKEVVRVWFCNRRQKEKR [T4G] the abundance fitness was -0.077 ± 0.066.
KKRHSIEVSVKGALESHFLKCPKPSAQEITNLADSLQLEKEVVRVWFCNRRQKEKR [T4H] gave an abundance fitness of -0.405 ± 0.23.
In the case of KKRISIEVSVKGALESHFLKCPKPSAQEITNLADSLQLEKEVVRVWFCNRRQKEKR [T4I], the abundance fitness is reported as -0.014 ± 0.17.
In the case of KKRKSIEVSVKGALESHFLKCPKPSAQEITNLADSLQLEKEVVRVWFCNRRQKEKR [T4K], the abundance fitness is reported as -0.142 ± 0.12.
For KKRLSIEVSVKGALESHFLKCPKPSAQEITNLADSLQLEKEVVRVWFCNRRQKEKR [T4L], the abundance fitness was -0.093 ± 0.074.
For KKRMSIEVSVKGALESHFLKCPKPSAQEITNLADSLQLEKEVVRVWFCNRRQKEKR [T4M], the abundance fitness was -0.064 ± 0.08.
Variant KKRPSIEVSVKGALESHFLKCPKPSAQEITNLADSLQLEKEVVRVWFCNRRQKEKR [T4P] has an abundance fitness of -0.257 ± 0.16.
With KKRQSIEVSVKGALESHFLKCPKPSAQEITNLADSLQLEKEVVRVWFCNRRQKEKR [T4Q] the abundance fitness was 0.005 ± 0.11.
KKRRSIEVSVKGALESHFLKCPKPSAQEITNLADSLQLEKEVVRVWFCNRRQKEKR [T4R] showed an abundance fitness of -0.26 ± 0.067.
Variant KKRSSIEVSVKGALESHFLKCPKPSAQEITNLADSLQLEKEVVRVWFCNRRQKEKR [T4S] has an abundance fitness of -0.077 ± 0.078.
Variant KKRVSIEVSVKGALESHFLKCPKPSAQEITNLADSLQLEKEVVRVWFCNRRQKEKR [T4V] has an abundance fitness of -0.095 ± 0.073.
KKRWSIEVSVKGALESHFLKCPKPSAQEITNLADSLQLEKEVVRVWFCNRRQKEKR [T4W] gave an abundance fitness of -0.572 ± 0.11.
KKRYSIEVSVKGALESHFLKCPKPSAQEITNLADSLQLEKEVVRVWFCNRRQKEKR [T4Y] showed an abundance fitness of -0.19 ± 0.11.
KKRTAIEVSVKGALESHFLKCPKPSAQEITNLADSLQLEKEVVRVWFCNRRQKEKR [S5A] gave an abundance fitness of 0.086 ± 0.079.
Work on KKRTCIEVSVKGALESHFLKCPKPSAQEITNLADSLQLEKEVVRVWFCNRRQKEKR [S5C] yielded an abundance fitness of 0.128 ± 0.09.
Work on KKRTDIEVSVKGALESHFLKCPKPSAQEITNLADSLQLEKEVVRVWFCNRRQKEKR [S5D] yielded an abundance fitness of -0.064 ± 0.12.
KKRTEIEVSVKGALESHFLKCPKPSAQEITNLADSLQLEKEVVRVWFCNRRQKEKR [S5E] showed an abundance fitness of -0.047 ± 0.1.
In the case of KKRTGIEVSVKGALESHFLKCPKPSAQEITNLADSLQLEKEVVRVWFCNRRQKEKR [S5G], the abundance fitness is reported as -0.008 ± 0.064.
